Measured values published in US20050272633A1.

Molecular target: endogenous NIK of mouse embryonic fibroblast cells (mouse) (UniProt Q9WUL6)
Test: cell-based or functional assay

Chain of endogenous NIK of mouse embryonic fibroblast cells (mouse) (Q9WUL6 whole entry): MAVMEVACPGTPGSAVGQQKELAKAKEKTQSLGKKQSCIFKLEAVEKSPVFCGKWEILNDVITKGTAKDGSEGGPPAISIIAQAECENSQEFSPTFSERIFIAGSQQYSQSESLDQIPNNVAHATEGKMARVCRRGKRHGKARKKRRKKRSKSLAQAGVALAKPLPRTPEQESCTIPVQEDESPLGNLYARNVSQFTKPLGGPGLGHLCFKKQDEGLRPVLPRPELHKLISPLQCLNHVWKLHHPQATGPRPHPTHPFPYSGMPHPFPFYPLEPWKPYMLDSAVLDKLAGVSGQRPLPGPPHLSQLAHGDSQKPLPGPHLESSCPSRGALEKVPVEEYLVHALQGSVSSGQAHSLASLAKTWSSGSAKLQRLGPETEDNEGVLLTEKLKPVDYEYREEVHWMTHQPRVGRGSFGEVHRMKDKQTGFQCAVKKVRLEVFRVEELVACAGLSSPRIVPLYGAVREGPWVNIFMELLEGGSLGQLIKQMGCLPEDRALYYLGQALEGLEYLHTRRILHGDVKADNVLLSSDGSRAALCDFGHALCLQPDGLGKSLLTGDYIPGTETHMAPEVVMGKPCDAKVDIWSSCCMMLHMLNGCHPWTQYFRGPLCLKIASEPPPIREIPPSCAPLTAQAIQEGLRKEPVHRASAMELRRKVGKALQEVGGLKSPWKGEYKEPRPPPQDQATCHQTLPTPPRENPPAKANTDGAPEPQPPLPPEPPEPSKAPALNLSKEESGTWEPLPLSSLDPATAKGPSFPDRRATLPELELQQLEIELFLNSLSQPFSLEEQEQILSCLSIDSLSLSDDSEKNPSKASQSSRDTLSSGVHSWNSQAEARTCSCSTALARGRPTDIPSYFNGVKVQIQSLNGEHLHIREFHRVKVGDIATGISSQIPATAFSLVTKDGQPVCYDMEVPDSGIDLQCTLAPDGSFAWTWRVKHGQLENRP

| NF-κB activation by LTβ, luciferase reporter assay, mouse embryonic fibroblast cell line | decrease in NF-κB activation by LTβ, luciferase reporter assay, mouse embryonic fibroblast cell line | Substance |
| --- | --- | --- |
| 2.5 fold |  | GST fusion protein with the intracellular domain of cγc (pGSTICcγc) (from UniProt P31785 284-369) |
|  | 50% | GST-41MDD fusion protein (from UniProt P31785 329-369) |
